Results on four substances are retold here after US20200308290A1.

For test [1], the target named is FcγRIIB on transfected CHO cells (UniProt P31994). The experiment in a line: flow cytometry on FcγRIIB-transfected CHO cells, detection with anti-human kappa antibody, GFI against nM. For orientation: A flow cytometer gives signals particle by particle.
Test [2] deals with FcγRIIIA on transfected CHO cells (UniProt P08637). The experiment in a line: flow cytometry on FcγRIIIA-transfected CHO cells, detection with anti-human kappa antibody, GFI against nM.
FcγRIIIA on transfected CHO cells, sequence (P08637 17-254 limits assumed): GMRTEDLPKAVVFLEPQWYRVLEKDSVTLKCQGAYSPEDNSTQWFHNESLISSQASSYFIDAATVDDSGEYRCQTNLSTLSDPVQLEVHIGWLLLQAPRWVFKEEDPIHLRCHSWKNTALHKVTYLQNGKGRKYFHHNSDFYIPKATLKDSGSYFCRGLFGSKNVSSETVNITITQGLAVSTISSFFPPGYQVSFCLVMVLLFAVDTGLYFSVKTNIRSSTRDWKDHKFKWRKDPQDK

FcγRIIB on transfected CHO cells, sequence (P31994 43-310 limits assumed): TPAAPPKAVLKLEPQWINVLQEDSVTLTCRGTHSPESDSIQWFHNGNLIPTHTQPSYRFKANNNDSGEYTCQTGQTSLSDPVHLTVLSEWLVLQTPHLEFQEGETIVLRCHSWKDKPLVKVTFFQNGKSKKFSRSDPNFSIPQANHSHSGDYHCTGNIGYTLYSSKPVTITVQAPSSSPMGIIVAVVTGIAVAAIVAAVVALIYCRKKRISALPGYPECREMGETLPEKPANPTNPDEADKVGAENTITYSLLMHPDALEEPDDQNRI

For L328F (antibody), in test [1], the EC50 (read off the curve) (usually the concentration needed to bring the measured effect to its halfway point) came to 2 nM.
Take N297A (antibody): the EC50 (read off the curve) in test [2] came out at 4 nM.
For S267E (antibody), the figures for the EC50 (read off the curve) in test [2] and in test [1] were 1 nM and 0.7 nM, respectively.
Regarding SELF (antibody), in test [1], the EC50 (read off the curve) was determined as 0.3 nM.
